Experiments:
[1] = system: murine uterine epithelial cells; experiment: Effect of rIFNγ and rTGFβ on GM-CSF production in cultured uterine epithelial cells (Example 2); format: cell-based, mouse
Experimental: Uterine Epithelial Cell Cultures. Uterine epithelial cells prepared as previously described (Robertson et al., Biol Reprod 46:1069-1079 (1992)) were pooled from 4-6 estrous C57B1/6 or C57B1/6×Balb/c F1 mice and plated in 1 ml culture wells (Nunc, Roskilde, Germany) at 1-2×10^5 cells per ml in 500 μl of Dulbecco's modified Eagles medium containing 10% FCS, […] streptomycin sulphate and […] benzyl penicillin (DMEM +penicillin). After 4 h incubation at 37° C. in 5% CO2 to allow cell adherence, a further 500 μl of DMEM +penicillin, or DMEM +penicillin plus recombinant mouse IFNγ (rIFNγ) and/or recombinant human TGFβ1 (rTGFβ), were added. In some experiments, penicillin-free DMEM (DMEM −penicillin) was used throughout. Culture supernatants were collected and replaced with fresh medium at 16 hours, then collected again 24 hours later, at which time GM-CSF content was determined and adherent cells were quantified as previously described (Robertson et al., Biol Reprod 46:1069-1079 (1992)). All treatments were performed in duplicate or triplicate. rTGFβ and rIFNγ were obtained from R&D Systems, UK.
GM-CSF bioassay: GM-CSF was assayed using the GM-CSF dependant cell line FD 5/12, essentially as previously described (Robertson et al., Biol Reprod 46:1069-1079 (1992)). Cell proliferation was determined by pulsing with 1 μCi of [^3H]-thymidine per well for the last 6 h of the assay. The minimal detectable amount of GM-CSF was 20 pg/ml. The identity of the bioactivity in uterine epithelial cell cultures was confirmed using a goat polyclonal antibody to murine GM-CSF (DNAX, Palo Alto, Calif.) as previously described (Robertson et al., Biol Reprod 46:1069-1079 (1992)). GM-CSF production is expressed as ng GM-CSF/10^5 cells/24 h. Recombinant mouse GM-CSF was obtained from R&D Systems.

[2] = system: uterine luminal fluid content of GM-CSF; experiment: Effect of IFN-γ treatment on GM-CSF content of uterine luminal fluids in mice (Example 7); format: in vivo; conditions: 5 ng or 20 ng transcervical on day 1 of pregnancy; fluids 7 hrs later; p=0.03 versus PBS control, treatment groups combined
Experimental: Mice were housed under specific pathogen-free conditions at the University of Adelaide Medical School Animal House on a 12:12 light-dark cycle, and were administered food and water ad libitum. Adult C57B1/6×CBA F1 females (7-10 weeks old) were caged with proven fertile Balb/c males for natural mating. The day of sighting a vaginal plug was nominated day 1 of pregnancy. Mice were randomly allocated to one of three groups and administered transcervical treatments of either 5 ng or 20 ng recombinant mouse IFN-γ (rmIFN-γ; R&D Systems) in 30 μl PBS containing 0.1% bovine serum albumin (PBS-BSA), or PBS-BSA alone (PBS control), at 0900 h on day 1. Treatments were delivered directly into the uterine lumen with the aid of a tom-cat catheter (Sovereign, St Louis Mo.), after removal of vaginal plugs using forceps to allow transcervical access. Mice were sacrificed 7 hrs later at 1600 h on day 1, and uterine luminal fluids were flushed in 1 ml PBS-BSA with a syringe and 26 gauge needle.
GM-CSF immunoactivity in uterine luminal fluids was measured by commercial mouse GM-CSF specific ELISA (R & D Systems) according to the manufacturer's instructions. Data are given as GM-CSF content in pg/ml uterine luminal fluid.

[3] = system: murine uterine epithelial cells; experiment: Effect of IFNγ on GM-CSF synthesis in murine uterine epithelial cells (Example 3); format: cell-based, mouse
Experimental: Uterine Epithelial Cell Cultures. Uterine epithelial cells prepared by pancreatin-trypsin digest as previously described (Robertson et al., (1992) Biol. Reprod. 46:1069-1079) were pooled from 4-6 estrous adult C57B1/6×CBA F1 female mice and plated in 1 ml culture wells (Nunc, Roskilde, Germany) at 1-2×10^5 cells per ml in 500 μl of RPMI containing 10% FCS and streptomycin (RPMI-FCS). Penicillin was omitted from culture media except where specified. After 4 h incubation at 37° C. in 5% CO2 to allow cell adherence, a further 500 μl of cytokines or antibodies in RPMI-FCS, or RPMI-FCS alone, were added. Cytokine treatments included recombinant mouse interferon-γ (rmIFNγ; R&D Systems), recombinant human transforming growth factor β1 (rhTGFβ1, R&D Systems), rhTGFβ2 (R&D Systems), rhTGFβ3 (OSI Pharmaceuticals). Antibody treatments included goat anti-mouse IFNγ receptor 1 (αIFNγR; R&D Systems AF1026) and hamster anti-mouse IFNγ (αIFNγ; R&D Systems MAB4851). Culture supernatants were collected and replaced with fresh complete RPMI-FCS alone at 16 hours, then collected again 24 hours later, at which time adherent cells were quantified as previously described (Robertson et al., (1992) Biol. Reprod. 46:1069-1079). The GM-CSF content of 24 h supernatants was determined by GM-CSF bioassay or immunoassay. All treatments were performed in duplicate or triplicate.
GM-CSF bioassay and immunoassay: Bioactive GM-CSF was assayed using the GM-CSF dependant cell line FD 5/12, essentially as previously described (Robertson et al., (1992) Biol. Reprod. 46:1069-1079). Cell proliferation was determined by the addition of 1 μCi of [^3H]-thymidine per well for the last 6 h of the assay. […] GM-CSF immunoactivity was in some experiments measured by commercial mouse GM-CSF specific ELISA (R & D Systems) according to the manufacturer's instructions.

B1: rIFNγ: recombinant mouse IFNγ (R&D Systems) (protein, UniProt P01580 23-155, looked up)
Interferon gamma: HGTVIESLESLNNYFNSSGIDVEEKSLFLDIWRNWQKDGDMKILQSQIISFYLRLFEVLKDNQAISNNISVIESHLITTFFSNSKAKKDAFMSIAKFEVNNPQVQRQAFNELIRVVHQLLPESSLRKRKRSRC
- rIFNγ concentrations at which an inhibitory effect was not seen ([1]; DMEM +penicillin): less than 150 pg/ml
- rIFN-γ concentration eliciting maximal decrease in GM-CSF production ([1]; DMEM +penicillin, dose-dependent decrease in each of three experiments): ≥ 2.5 ng/mL
- rIFNγ concentration giving maximal decrease in GM-CSF production ([1]; DMEM -penicillin, three experiments): ≥ 2.5 ng/mL
- rIFNγ concentration at which inhibitory effect was still observed ([1]; absence of penicillin): 2 pg/mL
- lowest effective concentration of rIFNγ ([1]; in the presence of 0.5 ng/ml rTGFβ): 39 pg/mL
- lowest effective inhibitory concentration of rIFNγ ([1]; in the presence of 5 ng/ml of rTGFβ): 2.5 ng/mL
- rIFNγ concentration with maximal inhibition of rTGFβ induction of GM-CSF synthesis ([1]; rTGFβ-stimulated cells, DMEM +penicillin): ≥ 2.5 ng/mL
- effect on uterine luminal fluid content of GM-CSF [2]: reduce uterine luminal fluid content of GM-CSF
- IFNγ concentration giving significant inhibition (GM-CSF synthesis <50% of control values) [3]: > 150 pg/mL
- IFNγ concentration inhibiting GM-CSF synthesis (<50% of control values) ([3]; absence of penicillin): ≥ 9.8 pg/mL
- IFNγ concentration at which inhibition of GM-CSF synthesis was evident ([3]; more than six experiments, penicillin omitted): ≥ 40 pg/mL

Source: patent publication US20050272636A1, “Treatment and diagnosis of a reproductive disorder by measuring or inhibiting interferon-gamma” (Adelaide Research & Innovation Pty Ltd., priority 2002, published 2005)
